In the Human Domainome abundance scans (Beltran et al. 2025):
± gives the uncertainty stated by the source.

B1: Homeobox protein SIX6, residues 134 to 184; numbered along this chain, O95475 (parent)
chain: CFKERTRHLLREWYLQDPYPNPSKKRELAQATGLTPTQVGNWFKNRRQRDR

Variants of: B1
Test: abundance fitness (aPCA) (normalised: wild type 0, dead -1); higher = more abundant; growth selection in yeast, the domain comes from the species named
Conditions: Homo sapiens

CFKERTRHLLREWYLQDPYPNPSKKREPAQATGLTPTQVGNWFKNRRQRDR [L28P] and CFKERTRHLLREWYLQDPYPNPSKKREQAQATGLTPTQVGNWFKNRRQRDR [L28Q] are within error of each other in abundance fitness: -0.958 ± 0.26 for the first, -0.88 ± 0.26 for the second.

Compared with CFKERTRHLLREWYLQDPYPNPSKKRERAQATGLTPTQVGNWFKNRRQRDR [L28R], CFKERTRHLLREWYLQDPYPNPSKKRESAQATGLTPTQVGNWFKNRRQRDR [L28S] is lower in abundance fitness: -0.765 ± 0.06 for the first, -0.981 ± 0.13 for the second.

Going from CFKERTRHLLREWYLQDPYPNPSKKREVAQATGLTPTQVGNWFKNRRQRDR [L28V] to CFKERTRHLLREWYLQDPYPNPSKKREWAQATGLTPTQVGNWFKNRRQRDR [L28W], the abundance fitness falls from -0.378 ± 0.052 to -0.788 ± 0.15.

First: CFKERTRHLLREWYLQDPYPNPSKKREYAQATGLTPTQVGNWFKNRRQRDR [L28Y]
Second: CFKERTRHLLREWYLQDPYPNPSKKRELDQATGLTPTQVGNWFKNRRQRDR [A29D]
The abundance fitness of the first is higher: -0.124 ± 0.13 for the first, -0.504 ± 0.16 for the second.

CFKERTRHLLREWYLQDPYPNPSKKRELEQATGLTPTQVGNWFKNRRQRDR [A29E] and CFKERTRHLLREWYLQDPYPNPSKKRELFQATGLTPTQVGNWFKNRRQRDR [A29F] are within error of each other in abundance fitness: -0.815 ± 0.16 for the first, -1.07 ± 0.38 for the second.

Going from CFKERTRHLLREWYLQDPYPNPSKKRELGQATGLTPTQVGNWFKNRRQRDR [A29G] to CFKERTRHLLREWYLQDPYPNPSKKRELHQATGLTPTQVGNWFKNRRQRDR [A29H], the abundance fitness falls from -0.397 ± 0.062 to -0.944 ± 0.15.

CFKERTRHLLREWYLQDPYPNPSKKRELIQATGLTPTQVGNWFKNRRQRDR [A29I] and CFKERTRHLLREWYLQDPYPNPSKKRELLQATGLTPTQVGNWFKNRRQRDR [A29L] are within error of each other in abundance fitness: -0.727 ± 0.28 for the first, -0.917 ± 0.068 for the second.

CFKERTRHLLREWYLQDPYPNPSKKRELNQATGLTPTQVGNWFKNRRQRDR [A29N] and CFKERTRHLLREWYLQDPYPNPSKKRELPQATGLTPTQVGNWFKNRRQRDR [A29P] are within error of each other in abundance fitness: -1.03 ± 0.29 for the first, -0.916 ± 0.2 for the second.

First: CFKERTRHLLREWYLQDPYPNPSKKRELQQATGLTPTQVGNWFKNRRQRDR [A29Q]
Second: CFKERTRHLLREWYLQDPYPNPSKKRELRQATGLTPTQVGNWFKNRRQRDR [A29R]
The abundance fitness of the first is higher: -0.527 ± 0.095 for the first, -0.982 ± 0.11 for the second.

Compared with CFKERTRHLLREWYLQDPYPNPSKKRELSQATGLTPTQVGNWFKNRRQRDR [A29S], CFKERTRHLLREWYLQDPYPNPSKKRELTQATGLTPTQVGNWFKNRRQRDR [A29T] is lower in abundance fitness: -0.058 ± 0.07 for the first, -1.07 ± 0.23 for the second.

CFKERTRHLLREWYLQDPYPNPSKKRELVQATGLTPTQVGNWFKNRRQRDR [A29V] and CFKERTRHLLREWYLQDPYPNPSKKRELWQATGLTPTQVGNWFKNRRQRDR [A29W] are within error of each other in abundance fitness: -0.767 ± 0.063 for the first, -0.923 ± 0.13 for the second.

CFKERTRHLLREWYLQDPYPNPSKKRELAAATGLTPTQVGNWFKNRRQRDR [Q30A] and CFKERTRHLLREWYLQDPYPNPSKKRELACATGLTPTQVGNWFKNRRQRDR [Q30C] are within error of each other in abundance fitness: -0.219 ± 0.089 for the first, -0.301 ± 0.11 for the second.

CFKERTRHLLREWYLQDPYPNPSKKRELADATGLTPTQVGNWFKNRRQRDR [Q30D] and CFKERTRHLLREWYLQDPYPNPSKKRELAEATGLTPTQVGNWFKNRRQRDR [Q30E] are within error of each other in abundance fitness: -0.064 ± 0.085 for the first, -0.193 ± 0.12 for the second.

CFKERTRHLLREWYLQDPYPNPSKKRELAFATGLTPTQVGNWFKNRRQRDR [Q30F] and CFKERTRHLLREWYLQDPYPNPSKKRELAGATGLTPTQVGNWFKNRRQRDR [Q30G] are within error of each other in abundance fitness: -0.239 ± 0.11 for the first, -0.276 ± 0.065 for the second.

CFKERTRHLLREWYLQDPYPNPSKKRELAHATGLTPTQVGNWFKNRRQRDR [Q30H] and CFKERTRHLLREWYLQDPYPNPSKKRELAIATGLTPTQVGNWFKNRRQRDR [Q30I] are within error of each other in abundance fitness: -0.205 ± 0.15 for the first, 0.036 ± 0.11 for the second.

Compared with CFKERTRHLLREWYLQDPYPNPSKKRELAKATGLTPTQVGNWFKNRRQRDR [Q30K], CFKERTRHLLREWYLQDPYPNPSKKRELALATGLTPTQVGNWFKNRRQRDR [Q30L] is lower in abundance fitness: -0.03 ± 0.1 for the first, -0.25 ± 0.046 for the second.

Going from CFKERTRHLLREWYLQDPYPNPSKKRELAMATGLTPTQVGNWFKNRRQRDR [Q30M] to CFKERTRHLLREWYLQDPYPNPSKKRELANATGLTPTQVGNWFKNRRQRDR [Q30N], the abundance fitness falls from -0.006 ± 0.073 to -0.374 ± 0.17.

Going from CFKERTRHLLREWYLQDPYPNPSKKRELAPATGLTPTQVGNWFKNRRQRDR [Q30P] to CFKERTRHLLREWYLQDPYPNPSKKRELARATGLTPTQVGNWFKNRRQRDR [Q30R], the abundance fitness rises from -0.893 ± 0.19 to -0.365 ± 0.059.

CFKERTRHLLREWYLQDPYPNPSKKRELATATGLTPTQVGNWFKNRRQRDR [Q30T] and CFKERTRHLLREWYLQDPYPNPSKKRELAVATGLTPTQVGNWFKNRRQRDR [Q30V] are within error of each other in abundance fitness: -0.051 ± 0.084 for the first, -0.059 ± 0.048 for the second.

First: CFKERTRHLLREWYLQDPYPNPSKKRELAWATGLTPTQVGNWFKNRRQRDR [Q30W]
Second: CFKERTRHLLREWYLQDPYPNPSKKRELAYATGLTPTQVGNWFKNRRQRDR [Q30Y]
The abundance fitness of the first is higher: 0.057 ± 0.069 for the first, -0.381 ± 0.1 for the second.

Compared with CFKERTRHLLREWYLQDPYPNPSKKRELAQCTGLTPTQVGNWFKNRRQRDR [A31C], CFKERTRHLLREWYLQDPYPNPSKKRELAQDTGLTPTQVGNWFKNRRQRDR [A31D] is lower in abundance fitness: -0.287 ± 0.082 for the first, -0.888 ± 0.32 for the second.

Compared with CFKERTRHLLREWYLQDPYPNPSKKRELAQETGLTPTQVGNWFKNRRQRDR [A31E], CFKERTRHLLREWYLQDPYPNPSKKRELAQFTGLTPTQVGNWFKNRRQRDR [A31F] is higher in abundance fitness: -0.14 ± 0.056 for the first, 0.262 ± 0.11 for the second.

CFKERTRHLLREWYLQDPYPNPSKKRELAQGTGLTPTQVGNWFKNRRQRDR [A31G] and CFKERTRHLLREWYLQDPYPNPSKKRELAQHTGLTPTQVGNWFKNRRQRDR [A31H] are within error of each other in abundance fitness: -0.65 ± 0.058 for the first, -0.514 ± 0.14 for the second.

First: CFKERTRHLLREWYLQDPYPNPSKKRELAQITGLTPTQVGNWFKNRRQRDR [A31I]
Second: CFKERTRHLLREWYLQDPYPNPSKKRELAQKTGLTPTQVGNWFKNRRQRDR [A31K]
The abundance fitness of the first is higher: 0.253 ± 0.12 for the first, -0.364 ± 0.14 for the second.

CFKERTRHLLREWYLQDPYPNPSKKRELAQLTGLTPTQVGNWFKNRRQRDR [A31L] and CFKERTRHLLREWYLQDPYPNPSKKRELAQMTGLTPTQVGNWFKNRRQRDR [A31M] are within error of each other in abundance fitness: 0.068 ± 0.059 for the first, -0.008 ± 0.086 for the second.

CFKERTRHLLREWYLQDPYPNPSKKRELAQNTGLTPTQVGNWFKNRRQRDR [A31N] gave an abundance fitness of -0.098 ± 0.1.
